Experimental data taken from patent publication US20110053865A1 (Ablynx, published 2011).
“And” between values parts separate entries of the source, which are not always exact repeats. Equal values may be shown once. Read-outs that look alike come from different tables or passages of the source.

T1: recombinant human IL-23 (p19/p40) (human, UniProt Q9NPF7 20-189; P29460 23-328)
T1 construct: Bought heterodimer (R&D Systems or eBioscience); biotinylated in the alpha-screens; also called hIL-23
T1 sequence (looked up) 1: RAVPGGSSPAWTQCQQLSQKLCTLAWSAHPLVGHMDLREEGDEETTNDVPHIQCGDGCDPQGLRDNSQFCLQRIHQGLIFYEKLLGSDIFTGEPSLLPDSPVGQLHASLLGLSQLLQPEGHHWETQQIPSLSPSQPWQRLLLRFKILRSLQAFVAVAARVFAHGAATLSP
T1 sequence (looked up) 2: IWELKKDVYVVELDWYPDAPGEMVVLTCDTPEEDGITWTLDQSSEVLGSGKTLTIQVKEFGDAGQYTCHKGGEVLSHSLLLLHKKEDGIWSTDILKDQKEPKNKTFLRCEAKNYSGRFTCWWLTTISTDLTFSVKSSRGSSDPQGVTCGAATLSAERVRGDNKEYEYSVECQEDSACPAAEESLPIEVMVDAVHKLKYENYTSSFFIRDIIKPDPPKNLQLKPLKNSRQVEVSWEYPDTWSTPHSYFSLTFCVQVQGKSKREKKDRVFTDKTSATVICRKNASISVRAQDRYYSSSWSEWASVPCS

T2: recombinant human IL-12 (human, UniProt P29459 23-219; P29460 23-328)
T2 sequence (looked up) 1: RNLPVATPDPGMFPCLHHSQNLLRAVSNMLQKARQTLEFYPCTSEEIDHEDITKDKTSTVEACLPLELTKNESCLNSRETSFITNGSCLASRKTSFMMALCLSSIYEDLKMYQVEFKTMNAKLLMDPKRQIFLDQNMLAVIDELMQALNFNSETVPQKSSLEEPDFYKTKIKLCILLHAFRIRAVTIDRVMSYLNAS
T2 sequence (looked up) 2: T1 sequence (looked up) 2

B1: P23IL 3F11 (VHH)
VHH: EVQLVESGGGLVQAGGSLRLSCAASGSIFSINAMGWFRQAPGKERQFVAAINWSTGSTYYSDSVKGRFTISRDNAKNTVYLQMNSLKPEDTAVYFCASGYLFPSSRGSQYDYWGQGTQVTVSS
notes: p40+ Nanobody; c-myc, His6-tagged
B2: P23IL119A3-35GS-81A12 (bispecific antibody)
chain: EVQLVESGGGLVQAGGSLRLSCAASGRIFSLPASGNIFNLLTIAWHRQAPGMQRELVATINSGSRTNYADSVKGRFTISRDNAQKTVYLQMNNLKPEDTAVYYCQTSGSGSPNFWGQGTQVTVSSGGGGSGGGGSGGGGSGGGGSGGGGSGGGGSGGGGSEVQLVESGGGLVQAGGSLRLSCAASGRTLSSYAMGWFRQAPGKEREFVARISQGGTAIYYADSVKGRFTISRDNAKNTVYLQMNSLKPEDTAVYYCAKDPSPYYRGSAYLLSGSYDSWGQGTQVTVSS
B3: P23IL 81A1 (VHH)
VHH: EVQLVESGGGLVQTGGSLRLSCAASVINFRLADMDWYRQALGKQRELVASISTGYRTNYADFVKGRFTISRDNAKNTVYLQMDSLKPEDTAVYYCAARDLRGLRVDYWGQGTQVTVSS
B4: P23IL3B8 (VHH)
VHH: EVQLVESGGGLVQPGGSLRLSCAASGFTFSSSVMFWLRQAPGKGLEWLSTIKPTGSTIYPGSGKGRFTISRDNAKNTLYLQINNLKPEDTALYYCARDIGGTVRGQGTQVTVSS
notes: as for B1
B5: P23IL81A12v4 (VHH)
VHH: EVQLLESGGGLVQPGGSLRLSCAASGRTLSSYAMGWFRQAPGKGREFVSRISQGGTAIYYADSVKGRFTISRDNSKNTLYLQMNSLRPEDTAVYYCAKDPSPYYRGSAYLLSGSYDSWGQGTLVTVSS
notes: Final humanization variant of 81A12
B6: P23IL81E10 (VHH)
VHH: EVQLVESGGGLVQAGGSLRLSCVASGRTFNTYGMGWFRQAPGKEREFVAANNWSGGATSYADSVKGRFTISRDNAKNTVFLQMNTLKPEDTAVYYCAAADRGGGWLVVRENDYDYWGQGTQVTVSS
notes: p40+ Nanobody
B7: P23IL3G10 (VHH)
VHH: EVQLVESGGGVVQAGESLRLSCAASGYNVKDYEMGWFRQAPGMEREFAAAISWRGSSTYYADSVKGRFTISRDNAKNTVYLQMSSLKPEDTAVYYCAAGRLYPSSRSRDYDYWGQGTQVTVSS
notes: as for B1
B8: P23IL80D10 (VHH)
VHH: EVQLVESGGGLVQAGGSLRLSCAASGRTFEGNPMGWFRQASGKKREFVASIDWSGGITSYADSVKGRFTISRDNAKNTVYLQMNSLKPEDTAVYYCAASARFGSGSYYDLMYDYWGQGTQVTVSS
notes: p40- Nanobody
B9: P23IL 84A12 (VHH)
VHH: EVQLVESGGGVVQAGESLRLSCAASGRSFSDYEMGWFRQAPGTEREFVASINRRGSSTFYADSVKGRFTISRDNTKNTVYLQMSSLKPEDTAVYLCAAGWLFPSSRSRDYDYWGQGTQVTVSS
notes: as for B1
B10: P23IL-23H3 (VHH)
VHH: EVQLVESGGGLVQAGDSLRLSCAASGRSFSNDAMGWFRQAPGKERSFVAAINWSGELTGYAGSVKGRFTISRDGVENMVFLQMNSLVPEDTGVYYCAAVEGRDYYRGAQYYDYWGQGTQVTVSS
notes: p40+ Nanobody
B11: P23IL-23E3 (VHH)
VHH: EVQLVESGGELVQAGGSLRLSCAASGSIVSISAMAWYRQAPGKQRERVATITRGGTPDYADSAKDRFTISRDNAKNTVSLQMNNLKPEDTAVYYCKAALRTPTHDYNYYDYWGQGTQVTVSS
notes: p40+ Nanobody
B12: P23IL119A3-9GS-81G2 (bispecific antibody)
chain: EVQLVESGGGLVQAGGSLRLSCAASGRIFSLPASGNIFNLLTIAWHRQAPGMQRELVATINSGSRTNYADSVKGRFTISRDNAQKTVYLQMNNLKPEDTAVYYCQTSGSGSPNFWGQGTQVTVSSGGGGSGGGSEVQLVESGGGLVQPGGSLRLSCIASGLPFSTKSMGWFRQAPGKEREFVARISPGGTSRYYGDFVKGRFAISRDNAKNTTWLQMNSLKAEDTAVYYCASGERSTYIGSNYYRTNEYDYWGTGTQVTVSS
B13: P23IL3C1 (VHH)
VHH: EVQLVESGGGSVQAGGSLRLSCKVSGIMFSDKGMGWFRQAPGKERETVAATNWSGGSTYYADSVKGRFTISRDNYKNTLHLQMASLKPEDTGIYYCAAAGDSWNSRRIEDYDYWGQGTPVTVSS
notes: p40+ Nanobody
B14: P23IL-22D7 (VHH)
VHH: EVQLVESGGGLVQAGGSLRLSCASSGRTFSIYARGWFRQAPGKEREFVAAIRSGLTTYSDSVKGRFTISRDIAKNTVFLQMNSLKSEDTAVYYCAAAVNYFTDFTDYSKRDSYDYWGQGTQVTVSS
notes: p40+ Nanobody
B15: P23IL 20F2 (VHH)
VHH: EVQLVESGGGLVQPGGSLRLSCAASGFSLDYTAIGWFRQAPGKEREVVSCFTSVPGSTYHADSVKGRFTIASDNAKNTVYLQMNDLKPEDTAVYYCATDAQTYYSGSYCGRTPQEYPYWGQGTQVTVSS
notes: p40- Nanobody
B16: P23IL-22E11 (VHH)
VHH: EVQLVESGGGLVQAGGSLRLSCAASGRTFSWSAVGWFRQAPGKEREFVAAIRWSGGSPYYADSVKDRFTISRDNAKNTVYLQMNSLRPEDTAVYLCGETSLFPTSRGSHYDTWGQGTQVTVSS
B17: P23IL-121A2-9GS-81G2 (bispecific antibody)
chain: EVQLVESGGGLVQAGGSLRLSCAASGSIFNFNYMGWFRQAPGKEREFVAAIRWSGSSTYYADSVKGRFTISRDDAKNTVALQMNSLKPEDTAIYYCALRKGIPYSTSDRVIKGVNDYDYWGQGTQVTVSSGGGGSGGGSEVQLVESGGGLVQPGGSLRLSCIASGLPFSTKSMGWFRQAPGKEREFVARISPGGTSRYYGDFVKGRFAISRDNAKNTTWLQMNSLKAEDTAVYYCASGERSTYIGSNYYRTNEYDYWGTGTQVTVSS
B18: P23IL 21C4 (VHH)
VHH: EVQLVESGGGLVQAGGSLRLSCAASGRTFSGYDMGWFRQAPGKEREFVAQISRHNSNTYYADAVKGRFTISRDNAKNTVSLQMNSLKPEDTAVYYCAIGSLFPSSRERDYDYWGQGTQVTVSS
notes: as for B1
B19: P23IL 84G12 (VHH)
VHH: EVQLVESGGRLVQAGGSLRLSCAASGRTFDSNPMGWFRQAPGKKREFVAIISGNGGITNYANSVKGRFTISRDNAKNTIYLQMNSLKPEDTAVYYCAASGLYGSGSVYDLMYDYWGQGTQVTVSS
notes: also called P23ILp40-PMP84G12

Experiments:
[1] = target: T1, recombinant human IL-23 (p19/p40); test: SPR Biacore, hIL-23 on chip
Method: (§1) Nanobody binding was assessed at one concentration (100 nM). Each Nanobody was injected for 4 minutes at a flow rate of 45 μl/min to allow binding to chip-bound antigen. Next, binding buffer without Nanobody was sent over the chip at the same flow rate to allow spontaneous dissociation of bound Nanobody.

[2] = target: T1, recombinant human IL-23 (p19/p40); test: cell-based or functional assay
[3] = target: cynomolgus IL-23 (cynomolgus); test: cell-based or functional assay
[4] = target: T1, recombinant human IL-23 (p19/p40); test: SPR Biacore, hIL-23 on chip; remark: listed apart in the source
Method: as §1

[5] = target: T3, cynomolgus IL-23 (cynomolgus); test: SPR Biacore, cyno IL-23 on chip
T3 construct: also called cyno IL-23; cIL-23

[6] = target: T2, recombinant human IL-12; test: cell-based or functional assay
[7] = target: T1, recombinant human IL-23 (p19/p40); test: cell-based or functional assay; remark: listed apart in the source
[8] = target: T3, cynomolgus IL-23; test: cell-based or functional assay; remark: listed apart in the source
[9] = target: T2, recombinant human IL-12; test: alpha-screen, hIL-12/IL12Rbeta1-Fc
Method: Human IL-23R-Fc chimera and hIL12Rbeta1-Fc chimera (R&D Systems, Minneapolis, Minn., US) were coupled to acceptor beads according to manufacturer instructions (Perkin Elmer, Waltham, Mass., US).
To this mixture, the IL12Rbeta1 acceptor beads and the streptavidin donor beads were added and further incubated for 1 hour at RT.

[10] = target: T1, recombinant human IL-23 (p19/p40); test: SPR Biacore, hIL-23
[11] = target: T3, cynomolgus IL-23; test: SPR Biacore, cyno IL-23 on chip; remark: listed apart in the source
[12] = target: T1, recombinant human IL-23 (p19/p40); test: cell-based or functional assay; remark: listed apart in the source

Row | Binder | koff [1] [s⁻¹] | IC50, mouse splenocyte assay (mIL-22) [7] [nM] | IC50, mouse splenocyte assay (mIL-22) [8] [nM] | IC50 [9] [nM] | koff [11] | other results
1 | B1 | 0.00146 |  |  |  |  | 
2 | B2 |  |  |  |  |  | IC50, splenocyte assay, 19 pM hIL-23 [2]: 7 pM; IC50, splenocyte assay, 3.8 pM cIL-23 [3]: 5 pM
3 | B3 |  |  |  |  |  | koff [4]: 0.00059 s⁻¹; koff [5]: 0.012 s⁻¹
4 | B4 | 0.0035 | 0.408 | 1.79 | 0.35 |  | IC50, PHA blast proliferation, 1 pM hIL-12; nc = no complete blocking [6]: 1500 pM
5 | B5 |  |  |  |  |  | Kd [10]: 0.33 nM; koff [10]: 0.0002 s⁻¹; kon [10]: 600000 M⁻¹ s⁻¹
6 | B6 | 0.00263 |  |  | 23 | 0.00132 s⁻¹ and 0.0012 s⁻¹ | 
7 | B7 | 0.00197 | 2.33 | 9.45 | 0.9 | 0.002 s⁻¹ and 0.004 s⁻¹ | IC50, PHA blast proliferation, 1 pM hIL-12 [6]: 194 pM
8 | B8 |  |  |  |  |  | koff [4]: 9.7e-05 s⁻¹; koff [5]: 0.000105 s⁻¹ and 7.9e-05 s⁻¹
9 | B9 | 0.0016 |  |  | 0.96 |  | 
10 | B10 | 0.0011 | 0.79 | 32.5 | 1.2 | 0.00067 s⁻¹ | IC50, PHA blast proliferation, 1 pM hIL-12 [6]: 174 pM
11 | B11 | 0.00018 | 0.935 | 5.46 | 1.2 | 0.0012 s⁻¹ and 0.0025 s⁻¹ | IC50, PHA blast proliferation, 1 pM hIL-12; nc = no complete blocking [6]: 1730 pM
12 | B12 |  |  |  |  |  | IC50, splenocyte assay, 19 pM hIL-23 [12]: 1990 pM
13 | B13 | 0.000294 |  |  | 1 | 5.9e-05 s⁻¹ | IC50, mouse splenocyte assay (mIL-22); nc = blocking not complete [7]: 0.51 nM; IC50, mouse splenocyte assay (mIL-22); nc = blocking not complete [8]: 0.517 nM
14 | B14 | 0.00017 | 0.116 | 0.705 | 1.9 | 0.00023 s⁻¹ | IC50, PHA blast proliferation, 1 pM hIL-12 [6]: 116 pM
15 | B15 |  |  |  |  |  | koff [4]: 0.00054 s⁻¹
16 | B16 | 0.00023 | 0.186 | 1.27 | 1.3 | 0.00023 s⁻¹ | IC50, PHA blast proliferation, 1 pM hIL-12 [6]: 159 pM
17 | B17 |  |  |  |  |  | IC50, splenocyte assay, 19 pM hIL-23 [12]: 740 pM
18 | B18 | 0.00051 |  |  | 1.63 |  | 
19 | B19 | 0.00029 |  |  |  | 7e-05 s⁻¹ | 
